Experimental data taken from publication PMC5693285.

Assays:
[1] = system: His-VtrAN-ZIPm (Vibrio parahaemolyticus RIMD2210633?; ZIP from Saccharomyces cerevisiae GCN4); assay: EMSA; settings: EMSA: 10 mM Tris-HCl pH 7.5, 100 mM KCl, 1 mM DTT, 1 mM EDTA, 0.2% NP-40, 10% glycerol, 100 ng/ml BSA; 4 nM probe, protein 0-400 nM; 30 min room temperature; 6%
[2] = system: His-VtrAN (Vibrio parahaemolyticus RIMD2210633?); assay: EMSA; settings: EMSA: 10 mM Tris-HCl pH 7.5, 100 mM KCl, 1 mM DTT, 1 mM EDTA, 0.2% NP-40, 10% glycerol, 100 ng/ml BSA; 4 nM probe, protein 0-400 nM; 30 min room temperature; 6%

With “AGGGGCTATGCCCCTTTTATTTTTAATTCTCAAAGTTATCTTTTGAAGGTAATGGGGTATTTTTGAATAACTACATTGGGGTGTGATTGTCCTCGTTGTTTTTTAGTTTTTTTTAGGTTTTTTTTGCTGCTTTTCACGGTTTTATCATCACTTTATTCCGTGATTTAGCAAAATTCTTTTTAGGAGTTTGAAGTGGTCGTCTTCATTACCACGGCTTTAAGAACAGAGACGTTCTCTTTTAATCACAATAAATAACGAAGAAAAACTGTGAAAAGGGCTCAGCG (double strand) [vtrB upstream region 284 bp]” the binding [1] was over 400 nM and the binding [2] was over 400 nM.
